Data reported in PMC13011424.

Key:
[1] = biological target: BG505 SOSIP.v4.1 Env trimer produced in STT3A-KO HEK293T cells (HIV-1 strain BG505 (clade A)); assay: native gel or EMSA
[2] = biological target: BG505 SOSIP.v4.1 Env trimer produced in STT3A-KO HEK293T cells (HIV-1 strain BG505 (clade A)); assay: SEC; SEC of Ni-NTA-purified Env on a Superdex 200 10/300 GL column; trimer, dimer and monomer peaks
[3] = biological target: BG505 SOSIP.v4.1 Env trimer produced in STT3B-KO HEK293T cells (HIV-1 strain BG505 (clade A)); assay: native gel or EMSA
[4] = biological target: BG505 SOSIP.v4.1 Env trimer produced in STT3B-KO HEK293T cells (HIV-1 strain BG505 (clade A)); assay: SEC; SEC of Ni-NTA-purified Env on a Superdex 200 10/300 GL column; trimer, dimer and monomer peaks
[5] = biological target: BG505 SOSIP.v4.1 Env trimer produced in wild-type (WT) HEK293T cells (HIV-1 strain BG505 (clade A)); assay: native gel or EMSA
[6] = biological target: BG505 SOSIP.v4.1 Env trimer produced in wild-type (WT) HEK293T cells (HIV-1 strain BG505 (clade A)); assay: SEC; SEC of Ni-NTA-purified Env on a Superdex 200 10/300 GL column; trimer, dimer and monomer peaks

Question: What does the source list for “BG505 SOSIP.v4.1 Env trimer produced in STT3A-KO HEK293T cells (complex)”?
Answer: stoichiometry N [1]: 3; stoichiometry N [2]: 3

Question: Which results are given for “BG505 SOSIP.v4.1 Env trimer produced in STT3B-KO HEK293T cells (complex)”?
Answer: stoichiometry N [3]: 3; stoichiometry N [4]: 3

Question: Which results are given for “BG505 SOSIP.v4.1 Env trimer produced in wild-type (WT) HEK293T cells (complex)”?
Answer: stoichiometry N [5]: 3; stoichiometry N [6]: 3
